The values that follow are results of earlier work, collected in PMC12224906.

In this data set the target is eIF5B CTD (Homo sapiens) (UniProt O60841).
Chain of UniProt O60841 (O60841 1076-1220): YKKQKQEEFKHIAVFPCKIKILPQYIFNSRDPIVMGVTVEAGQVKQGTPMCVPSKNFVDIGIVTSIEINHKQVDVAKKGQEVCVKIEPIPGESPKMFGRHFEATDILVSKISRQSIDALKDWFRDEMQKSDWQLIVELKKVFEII

As for eIF5 CTT (from UniProt P55010), the Kd (usually a measure of binding affinity in units of concentration) was 500 nM.
